According to US20220202899A1, “COMPOSITION FOR PREVENTION OR TREATMENT OF HAIR LOSS INCLUDING HAPLN1” (HAPLNSCIENCE INC., priority 2019, published 2022):

How the values were obtained:
Format in all cases: cell-based
[1] = tested on: TβRII; assay: TβRII protein in human hair germinal matrix cells treated with HAPLN1 and/or HA, then TGF-β2 (Western blotting)
Method: Human hair germinal matrix cells were dispensed into a poly-D-lysine 6-well plate at a concentration of 5.0×10^4 per well and cultured for 24 hours. After 24 hours, the medium was removed and replaced with a new serum-free medium. HAPLN1 was treated with 25 ng/mL, HA was treated with 25 μg/mL, and after 1 hour, TGF-β2 (2 ng/mL) was treated. After 23 hours, cells were collected, a lysis buffer (25 mM Tris-HCl, 1 mM EDTA, 0.1% Triton-X100, phosphatase inhibitor, and protease inhibitor) was added, and all the cells were broken through sonication. TβRI and TβRII in the sample were measured using Western blotting. The optical density of TβRII was compared to that of GAPDH using a densitometer.

[2] = tested on: TβRII; assay: TβRII protein after HAPLN1 and/or HA in CD44-deficient human hair germinal matrix cells; settings: after CD44 siRNA; HAPLN1 25 ng/mL and/or HA 25 μg/mL; TGF-β2 2 ng/mL, 23 hours
Method: The human hair germinal matrix cells, which were made to be deficient in CD44 by using CD44 siRNA, were dispensed into a poly-D-lysine 6-well plate at a concentration of 5.0×10^4 per well and cultured for 24 hours. After 24 hours, the medium was removed and replaced with a low-serum medium. CD44 siRNA and scrambled siRNA were added at a concentration of 25 pmol per well and incubated for 24 hours. After the siRNA and the medium were all removed, the medium was replaced with a serum-free medium having HAPLN1 (25 ng/mL) or HA (25 μg/mL) added thereto, and cultured for 1 hour. TGF-β2 (2 ng/mL) was treated and incubated for 23 hours. After collecting cells, a lysis buffer (25 mM Tris-HCl, 1 mM EDTA, 0.1% Triton-X100, phosphatase inhibitor, and protease inhibitor) was added, and all the cells were broken through sonication. TβRII in the sample was measured using Western blotting. The optical density of TβRII was compared to that of GAPDH using a densitometer.

[3] = tested on: p-ERK1/2; assay: p-ERK1/2 in human hair germinal matrix cells stimulated with TGF-β2 (Western blotting); settings: TGF-β2 2 ng/mL, 1 hour
Method: (§1) Human hair germinal matrix cells were dispensed into a poly-D-lysine 6-well plate at a concentration of 5.0×10^4 per well and cultured for 24 hours. After 24 hours, the medium was removed and replaced with a new serum-free medium. HAPLN1 was treated with 25 ng/mL and HA with 25 μg/mL, incubated for 23 hours, and then stimulated with TGF-β2 (2 ng/mL) for 1 hour. After collecting cells, a lysis buffer (25 mM Tris-HCl, 1 mM EDTA, 0.1% Triton-X100, phosphatase inhibitor, and protease inhibitor) was added, and all the cells were broken through sonication. p-ERK1/2, p-Smad2, p-MEK1/2, and p-c-Raf in the sample were measured using Western blotting. Optical densities of p-ERK1/2, p-Smad2, p-MEK1/2, and p-c-Raf were compared to those of ERK1/2, Smad2/3, MEK1, and c-Raf using a densitometer. Here, ERK1/2, Smad2/3, MEK1, and c-Raf were used as loading controls.

[4] = tested on: p-Smad2; assay: p-Smad2 in human hair germinal matrix cells stimulated with TGF-β2 (Western blotting); settings: HAPLN1 25 ng/mL and/or HA 25 μg/mL; TGF-β2 2 ng/mL, 1 hour
Method: as §1

[5] = tested on: p-MEK1/2; assay: p-MEK1/2 in human hair germinal matrix cells stimulated with TGF-β2 (Western blotting); settings: HAPLN1 25 ng/mL and/or HA 25 μg/mL; TGF-β2 2 ng/mL, 1 hour
Method: as §1

[6] = tested on: human hair germinal matrix cells; assay: Cell proliferation of human hair germinal matrix cells, CCK-8 (Example 10); settings: HAPLN1 25 ng/mL and/or HA 25 μg/mL; TGF-β2 2 ng/mL, 23 hours
Method: Human hair germinal matrix cells were dispensed into a poly-D-lysine 96-well plate at a concentration of 2.0×10^4 per well and cultured for 24 hours. After 24 hours, the medium was removed and replaced with a new serum-free medium. HAPLN1 was treated with 25 ng/mL and HA with 25 μg/mL, incubated for 1 hour, and then stimulated with TGF-β2 (2 ng/mL) for 23 hours. CCK-8 (Enzo Biochem, NY, USA) was treated and incubated at 37° C. for 1 hour.

[7] = tested on: human dermal papilla cells; assay: Dermal papilla cell proliferating effect, CCK-8 (Example 13); settings: proteins 25 ng/ml, minoxidil 10 μM; TGF-β2 (2 ng/ml) present or absent
Method: Human dermal papilla cells were cultured in a 37° C., 5% CO2 incubator using a dermal papilla cell proliferation medium (Promocell). When the cells were about 90% full, the cells were detached with a 0.05% Trypsin/EDTA solution and then centrifuged at 1000 rpm for 3 minutes to recover only the cells. The cells were dispensed into a 96-well plate at 2.0×10^3 per well, cultured for 24 hours, and HAPLN1, CX3CL1 and CDON were diluted to have a final concentration of 25 ng/ml in serum-free medium. After removing the existing culture medium, 200 μl of diluted HAPLN1, CX3CL1, and CDON were dispensed into each well and cultured for 1 hour. To reduce an experimental variation, 3 wells per group were treated (triplication). In addition, minoxidil, which is known to proliferate dermal papilla cells, was treated with 10 μM and set as a positive control.
(§2) In the same manner as described above, HAPLN1 (25 ng/ml), CX3CL1 (25 ng/ml), CDON (25 ng/ml) or minoxidil (10 μM), and human recombinant TGF-β2 were diluted to a final concentration of 2 ng/ml, and the medium of the group containing TGF-β2 was replaced by 200 μl. To reduce an experimental variation, 3 wells per group were treated (triplication).
(§3) After incubation for 23 hours, the plate was removed from the incubator, and 20 μl of CCK-8 (WST-8) solution was added to the plate containing the medium and the reagent per 200 μl of the medium for the reaction to be carried out at 37° C. for 1 hour.

[8] = tested on: human hair germinal matrix cells; assay: Hair germinal matrix cell proliferating effect, CCK-8 (Example 13); settings: 25 ng/ml
Method: as §2, §3
Human hair germinal matrix cells were released in a poly-D-lysine-coated flask using a mesenchymal stem cell medium (MSCM), and cultured in a 5% CO2 incubator at 37° C. When the cells were about 90% full, the cells were detached with a 0.05% Trypsin/EDTA solution, and then only the cells were recovered by centrifugation at 1000 rpm for 3 minutes. The recovered cells were dispensed into 96-well poly-D-lysine coated plates (BD bioscience) at 2.0×10^3 per well and cultured for 24 hours, and the final concentrations of HAPLN1, CX3CL1 and CDON were diluted to 25 ng/ml in a serum-free medium. The subsequent process was performed in the same manner as the experiment for the dermal papilla cells to measure the absorbance, and the results are shown in FIG. 22.

B1: hyaluronan and proteoglycan link protein 1 (protein, UniProt P10915 16-354, looked up)
Hyaluronan and proteoglycan …: DHLSDNYTLDHDRAIHIQAENGPHLLVEAEQAKVFSHRGGNVTLPCKFYRDPTAFGSGIHKIRIKWTKLTSDYLKEVDVFVSMGYHKKTYGGYQGRVFLKGGSDSDASLVITDLTLEDYGRYKCEVIEGLEDDTVVVALDLQGVVFPYFPRLGRYNLNFHEAQQACLDQDAVIASFDQLYDAWRGGLDWCNAGWLSDGSVQYPITKPREPCGGQNTVPGVRNYGFWDKDKSRYDVFCFTSNFNGRFYYLIHPTKLTYDEAVQACLNDGAQIAKVGQIFAAWKILGYDRCDAGWLADGSVRYPISRPRRRCSPTEAAVRFVGFPDKKHKLYGVYCFRAYN
notes: extracellular matrix protein found in cartilage; stabilizes aggregates of hyaluronic acid and proteoglycans
[1]; HAPLN1 25 ng/mL or HA 25 μg/mL alone, TGF-β2 2 ng/mL after 1 hour, 23 hours
  TβRII protein (optical density compared to GAPDH): significantly increased
[1]; HAPLN1 25 ng/mL with HA 25 μg/mL, TGF-β2 2 ng/mL
  TβRII protein, HAPLN1 treated together with HA: further enhanced the increase of TβRII by HA
[2]
  TβRII protein in CD44-deficient cells: not confirmed that TβRII was recovered
[3]; HAPLN1 25 ng/mL and/or HA 25 μg/mL, 23 hours
  ERK1/2 signaling (p-ERK1/2 compared to ERK1/2): activated
[3]; HAPLN1 25 ng/mL with HA 25 μg/mL
  ERK1/2 signaling, HAPLN1 treated together with HA: enhanced the activation of ERK1/2 signaling of HA
[4]
  phosphorylation of Smad2: no change
[5]
  MEK1/2 activity (p-MEK1/2 compared to MEK1): increased activities
[6]
  cell proliferation (absorbance at 450 nm) compared to the control group: promoted
[7]
  dermal papilla cell proliferation (absorbance at 450 nm): did not proliferate dermal papilla cells or rather inhibited proliferation thereof
[8]; absence of TGF-β2
  hair germinal matrix cell proliferation (absorbance at 450 nm): significant hair germinal matrix cell proliferating activity
[8]; presence of TGF-β2 (2 ng/ml)
  hair germinal matrix cell proliferation (absorbance at 450 nm): particularly superior hair germinal matrix cell proliferating activity
